# Publication PMC5397206
# Molecular target: Prp43 (yeast) (UniProt P53131)
# UniProt P53131, sequence (P53131 whole entry): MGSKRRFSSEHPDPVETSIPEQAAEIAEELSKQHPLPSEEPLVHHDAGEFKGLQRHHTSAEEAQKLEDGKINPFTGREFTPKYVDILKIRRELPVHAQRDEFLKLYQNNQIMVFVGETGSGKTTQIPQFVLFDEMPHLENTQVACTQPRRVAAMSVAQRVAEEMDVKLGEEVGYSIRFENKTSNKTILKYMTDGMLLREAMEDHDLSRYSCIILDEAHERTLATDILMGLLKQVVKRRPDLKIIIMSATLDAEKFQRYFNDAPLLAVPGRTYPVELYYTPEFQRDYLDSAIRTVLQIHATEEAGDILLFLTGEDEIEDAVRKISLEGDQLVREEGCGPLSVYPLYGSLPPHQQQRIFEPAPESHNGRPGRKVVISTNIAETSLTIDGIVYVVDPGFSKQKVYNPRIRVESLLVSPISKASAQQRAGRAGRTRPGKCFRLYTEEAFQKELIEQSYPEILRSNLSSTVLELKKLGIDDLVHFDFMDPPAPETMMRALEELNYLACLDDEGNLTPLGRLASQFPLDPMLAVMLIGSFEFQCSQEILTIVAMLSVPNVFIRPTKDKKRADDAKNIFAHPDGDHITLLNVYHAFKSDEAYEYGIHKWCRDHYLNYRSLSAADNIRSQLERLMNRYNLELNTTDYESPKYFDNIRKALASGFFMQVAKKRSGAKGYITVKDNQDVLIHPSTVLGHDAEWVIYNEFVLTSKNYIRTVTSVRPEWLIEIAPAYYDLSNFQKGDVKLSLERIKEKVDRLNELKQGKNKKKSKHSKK
binder,measurement,value
Pfa1 full-length (Pfa1FL) (natural protein) MAKRHSHYQGSRRRHARGSNSKKAGRGNAKGIQGRKIKKKPTPTNSWHNSSIPLGEGDLDDVGADFNPGRAFISPKTIEDYYFGRDAKSRSMKMGGLRPGNRYDSSTDLQAGRAAFRKRPMQFVKAKEVYDPSHNMIQKLRAKNETKNSEEIVEREADVFEEPGKMTSDVEYINNEDSENEDDDSQNSPSTDHSLSSNESKVEDGDLFFVDEEAQQSPDLTKIKRVCIEEIARPREVAIEFDPILTIGKVELSVSEGNESKEISVDVPNKGNKTYHPFAGYISNVLHGMHTSDSDNDELDYEIETENNSEPLYESSASSEVDQGFNYVGQRHNSRADNNLLPSPSPQLTEDIKCLSINGTKTFEGNNDNLPSPASEELEFGFKEEDFVINTNDIVVSNIRMGGVDNSYYLRCYRLLGDYDFHWIDQDLLTDFVVDELGLPEDRLPAYLNFIKNSLIPKIEPAEPTYSDIPISDSSDEGDSYEGDSYEDDEDMASSVVHSDIEEGLDDLIAYTLKHDTERFKTFETKSLETKGKGKKKKLLIDDALALDTETLETLQSKFSKRIETKAKKRKAKEDFIDQENRNSNDMLKKYPYGLHIQNIKDEFESFLSRNNDRLTFPPLDPHGNKTVMKIAKHYNMKSSKIGKANHTSVVVEKIKKTKWSSPNYSLIDQLMRQRPVFMRIDIRRPREEQAAFERTKTIRGKFHVKEGEIVGQNAPEIGNENIGRRMLEKLGWKSGEGLGIQGNKGISEPIFAKIKKNRSGLRHSES,"catalytic efficiency of Prp43 ATPase (kcat/KM), Pfa1FL versus Pfa1GP",3 fold
